# Source: PMC3597719
# Biological target: NS1 protein expressed in yeast cells (UniProt P14340)
substance,measurement,value
NS1 protein expressed in yeast cells (from UniProt P14340 776-1127) (natural protein),stoichiometry N,2
